Measured values taken from article PMC6529188 (Cell, 2019).
Where no end group is shown, it is not given here.

Target: the molecule itself
Assay: cross-linking

Row | Protein | stoichiometry N
1 | PGSLSGIIIGVTVAAVVLIVAVFVCKSLLWKKVLP (domain or fragment, human, UniProt O14763-1 208-242, looked up, also: His6-tagged, active amine groups blocked with Sulfo-NHS Acetate) [His6-tagged DR5^TMH, wild type (for OG-label)] | 6
2 | PGSLSGIIIYVTVAAVVLIVAVFVCKSLLWKKVLP (domain or fragment, human, UniProt O14763-1 208-242, looked up, also: His6-tagged, active amine groups blocked with Sulfo-NHS Acetate) [His6-tagged DR5^TMH G217Y mutant (for OG-label)] | 3
3 | PGSLSGIIIGVTVAAVVLIYAVFVCKSLLWKKVLP (domain or fragment, human, UniProt O14763-1 208-242, looked up, also: His6-tagged, active amine groups blocked with Sulfo-NHS Acetate) [His6-tagged DR5^TMH V227Y mutant (for OG-label)] | 6

Target: the molecule itself
Assay: SDS-PAGE without boiling of bicelle-reconstituted protein

Row | Protein | stoichiometry N
4 | PGSLSGIIIGVTVAAVVLIVAVFVCKSLLWKKVLP (domain or fragment, UniProt O14763-1 208-242, looked up) [DR5^TMH (human DR5 isoform 1 residues 208-242, C209G), wild type] | 3
5 | PGSLSGIIIGVTVAAVVLIYAVFVCKSLLWKKVLP (domain or fragment, human, UniProt O14763-1 208-242, looked up) [DR5^TMH V227Y mutant] | 3
6 | PGSLSGIIIYVTVAAVVLIVAVFVCKSLLWKKVLP (domain or fragment, human, UniProt O14763-1 208-242, looked up) [DR5^TMH G217Y mutant] | 3
